Molecular target: T1, Biotinylated human ICOS protein (human, UniProt Q9Y6W8 21-140, limits assumed, biotinylated (sites not given))
T1 construct: Captured on the NLC chip in the avidity SPR
T1 sequence: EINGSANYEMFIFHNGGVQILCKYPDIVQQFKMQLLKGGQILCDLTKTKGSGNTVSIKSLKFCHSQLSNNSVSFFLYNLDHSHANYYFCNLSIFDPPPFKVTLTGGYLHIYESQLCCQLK
Assay: SPR ProteOn avidity format, biotinylated human ICOS on NLC chip, antibody analyte; apparent KD from equilibrium, 25 C
Protocol: Biotinylated human ICOS protein diluted at 7.5 μg/mL in running buffer (1× HBS-EP+ Buffer Technova, cat. No. H8022) was captured on a NLC sensor chip (Bio-Rad, cat No 1765021). The surface was then blocked using biocytin (Sigma Aldrich, cat No B1758) at 1 mg/mL.
The assay was carried out at 25° C.
The buffer injection (i.e. 0 nM) was used to double reference the sensorgrams. The analysis was carried out using the equilibrium model inherent to the ProteOn's analysis software for each mAb² construct.

B1: STIM001 (antibody, human IgG1, kappa)
heavy: not shown
light: DIVMTQSPLSLPVTPGEPASISCRSSQSLLHSNEYNYLDWYLQKPGQSPQLLIFLGSNRASGVPDRFSGSGSGTDFTLKITRVEAEDVGIYYCMQSLQTPLTFGGGTKVEIKRTVAAPSVFIFPPSDEQLKSGTASVVCLLNNFYPREAKVQWKVDNALQSGNSQESVTEQDSKDSTYSLSSTLTLSKADYEKHKVYACEVTHQGLSSPVTKSFNRGEC
notes: Anti-ICOS monospecific antibody, tested as human IgG1; also called STIM001 monoclonal IgG1 antibody
Kd: 57.1 nM

Reference: patent US20240343810A1 (published 2024)
